Measured values published in paper PMC10335668 (2023).

B1: HCV E1 glycoprotein, H77 WT isolate [hepatitis C virus] / CD81 receptor [not stated] (parent complex)
chain 1: YQVRNSSGLYHVTNDCPNSSVVYEAADAILHTPGCVPCVREGNASRCWVAVTPTVATRDGKLPTTQLRRHIDLLVGSATLCSALYVGDLCGSVFLVGQLFTFSPRHHWTTQDCNCSIYPGHITGHRMAWNMMMNWSPTAALVVAQLLRIPQAIMDMIAGAHWGVLAGIKYFSMVGNWAKVLVVLLLFAGVDA
chain 2: MGVEGCTKCIKYLLFVFNFVFWLAGGVILGVALWLRHDPQTTNLLYLELGDKPAPNTFYVGIYILIAVGAVMMFVGFLGCYGAIQESQCLLGTFFTCLVILFACEVAAGIWGFVNKDQIAKDVKQFYDQALQQAVVDDDANNAKAVVKTFHETLDCCGSSTLTALTTSVLKNNLCPSGSNIISNLFKEDCHQKIDDLFSGKLYLIGIAAIVVAVIMIFEMILSMVLCCGIRNSSVY

Variants of: B1
Experiment: CD81 receptor binding (method in S1 Text, not given); parent: 1; read off a plot

| Variant | ratio to parent |
| --- | --- |
| chain 1 C81A, chain 1 C90A | ~1.1 |
| chain 1 R4C, chain 1 Q111C | ~0.6 |
| chain 1 E24C, chain 1 I29C | ~0.65 |
| chain 1 C38A, chain 1 C113A | ~0.85 |
| chain 1 C47A, chain 1 C115A | ~0.85 |
| chain 1 C16A, chain 1 C35A | ~0.8 |
